This series concerns the molecule itself. The series can be described thus: NMR (3D 15N-separated NOE spectrum, NOE-TROSY); 2H/15N-labeled ngMinE bound to q = 0.5 DMPC:DHPC bicelles; 150 ms mixing time; 35 °C; 25 mM potassium phosphate pH 6.5, 1 mM EDTA, 1 mM benzamidine hydrochloride.

B1: Full-length Neisseria gonorrhoeae MinE bearing the double mutation E46A/R10Q (natural protein)
chain: MSLIELLFGQKQKTATVARDRLQIIIAQERAQEGQTPDYLPTLRKALMEVLSKYVNVSLDNIRISQEKQDGMDVLELNITLPEQKKV
modifications: uniform 2H/15N or 2H/15N/13C isotope labeling
notes: Dimer with C2 symmetry (about 19 kDa); also called ngMinE; full-length ngMinE; not shown: His6, C-terminal, kept
With B1, the binding result is reported as “binds”.
